In assay [1] the target is S. cerevisiae CIII2CIV1/2 supercomplex (S. cerevisiae) (UniProt P08067). Briefly: cryo-EM structure; 10.5 uM supercomplex with 126 uM S. cerevisiae cyt. c (~1:12) in 20 mM KCl, 20 mM KH2PO4 pH 7.4, 0.01 % GDN; 3D classification with a mask over the cyt. c region.
Assay [2] has the same target.
Assay [3] concerns the target complex III2 (CIII2) dimer of S. cerevisiae (S. cerevisiae) (UniProt P08067). Kind of assay: cryo-EM structure; 10.5 uM supercomplex with 126 uM S. cerevisiae cyt. c (~1:12) in 20 mM KCl, 20 mM KH2PO4 pH 7.4, 0.01 % GDN; 3D classification with a mask over the cyt. c region.

“cytochrome c from S. cerevisiae (from UniProt P00044 1-109) (natural protein)” returned a stoichiometry N (cyt. c per CIII monomer-CIV pair) in assay [1] of 2. In addition, the QH2:O2 oxidoreductase activity (O2 reduction upon addition of QH2) of the supercomplex, cyt. c varied up to ~50 uM, 20 mM KCl in assay [2] turned out to be 50 electrons/s.
Usually stoichiometry N stands for the number of molecules, sites or subunits per partner or assembly. Regarding “complex III2 (CIII2) dimer of S. cerevisiae (from UniProt P08067 31-215; P07143 62-309; P00127 1-147; P22289 1-66)”, in assay [3], the stoichiometry N was 2.
